Data on 1 molecule can be found in PMC5495335.

In the experiment the target is T1, CD6 lymphocyte surface receptor (human (endogenous in PBMC)) (UniProt P30203).
T1 sequence: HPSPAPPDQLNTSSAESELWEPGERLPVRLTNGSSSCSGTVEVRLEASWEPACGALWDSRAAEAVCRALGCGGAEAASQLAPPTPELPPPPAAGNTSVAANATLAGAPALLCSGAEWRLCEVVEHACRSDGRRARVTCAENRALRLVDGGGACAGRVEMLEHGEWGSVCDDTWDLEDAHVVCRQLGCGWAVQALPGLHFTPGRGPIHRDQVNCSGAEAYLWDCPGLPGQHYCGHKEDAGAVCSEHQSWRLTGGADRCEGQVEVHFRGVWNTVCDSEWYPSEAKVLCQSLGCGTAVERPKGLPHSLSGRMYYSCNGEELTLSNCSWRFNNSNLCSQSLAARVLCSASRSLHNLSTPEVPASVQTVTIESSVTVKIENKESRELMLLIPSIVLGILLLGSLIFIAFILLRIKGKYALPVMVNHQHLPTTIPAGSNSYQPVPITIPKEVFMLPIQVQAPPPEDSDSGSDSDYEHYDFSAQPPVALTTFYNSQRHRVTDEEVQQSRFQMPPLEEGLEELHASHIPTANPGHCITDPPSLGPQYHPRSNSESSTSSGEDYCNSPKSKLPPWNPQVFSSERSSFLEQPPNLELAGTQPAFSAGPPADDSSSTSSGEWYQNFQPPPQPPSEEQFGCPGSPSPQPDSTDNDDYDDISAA

B1: Recombinant Human ALCAM/CD166 Fc Chimera (Fc fusion)
chain: WYTVNSAYGDTIIIPCRLDVPQNLMFGKWKYEKPDGSPVFIAFRSSTKKSVQYDDVPEYKDRLNLSENYTLSISNARISDEKRFVCMLVTEDNVFEAPTIVKVFKQPSKPEIVSKALFLETEQLKKLGDCISEDSYPDGNITWYRNGKVLHPLEGAVVIIFKKEMDPVTQLYTMTSTLEYKTTKADIQMPFTCSVTYYGPSGQKTIHSEQAVFDIYYPTEQVTIQVLPPKNAIKEGDNITLKCLGNGNPPPEEFLFYLPGQPEGIRSSNTYTLTDVRRNATGDYKCSLIDKKSMIASTAITVHYLDLSLNPSGEVTRQIGDALPVSCTISASRNATVVWMKDNIRLRSSPSFSSLHYQDAGNYVCETALQEVEGLKKRESLTLIVEGKPQIKMTKKTDPSGLSKTIICHVEGFPKPAIQWTITGSGSVINQTEESPYINGRYYSKIIISPEENVTLTCTAENQLERTVNSLNVSAISIPEHDEADEISDENREKVNDQAK
B1 registered a tyrosine phosphorylation of CD6 immunoprecipitated from human PBMC plated on plate-bound ALCAM (immunoblot for p-Tyr) greater than 2.5 fold.
